According to the supplement of paper PMC10724198:
± gives the standard deviation of the averaged measurements.

Columns and labels:
Saccharomyces cerevisiae [1] = assay: protein stability index of tFT-peptide fusion (C-terminal peptide) (PSI (0-1 scale)); higher = more stable (slower turnover)
Description: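 MPS profiling in S. cerevisiae of the tFT-X12 degron library: putative degron peptides plus stable controls, 12 aa, fused to the C-terminus of a sfGFP-mCherry timer. Cells are FACS-sorted into 8 mCherry/sfGFP bins and deep-sequenced. PSI runs from 0 (unstable) to 1 (stable). Backgrounds are wild type, das1Δ and doa10Δ at 30 °C, and wild type, das1Δ, cdc34-1 and cdc53-1 at 37 °C; 2-3 technical replicates each.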

Saccharomyces cerevisiae [2] = assay: as above; details: genetic background: wild type; temperature: 30 C
[3] = genetic background: cdc34-1, temperature: 37 C
[4] = genetic background: cdc53-1, temperature: 37 C
[5] = genetic background: das1 deletion, temperature: 30 C
[6] = genetic background: das1 deletion, temperature: 37 C
[7] = genetic background: doa10 deletion, temperature: 30 C
[8] = genetic background: wild type, temperature: 30 C
[9] = genetic background: wild type, temperature: 37 C
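Also: PSI is a weighted mean of sequencing reads over stability bins, variants kept only with over 10 reads, mCherry proximal and sfGFP distal, peptide attached via GGGS linker.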

Sequence | protein stability index (Saccharomyces cerevisiae [1]; [3]) | protein stability index (Saccharomyces cerevisiae [1]; [4]) | protein stability index (Saccharomyces cerevisiae [1]; [5]) | protein stability index (Saccharomyces cerevisiae [1]; [6]) | protein stability index (Saccharomyces cerevisiae [1]; [7]) | protein stability index (Saccharomyces cerevisiae [1]; [8]) | protein stability index (Saccharomyces cerevisiae [1]; [9]) | protein stability index (Saccharomyces cerevisiae [2])
RVCVFVLFGLCF | 0.352 ± 0.041 | 0.401 ± 0.0075 | 0.324 ± 0.04 | 0.48 ± 0.0059 | 0.309 ± 0.0047 | 0.315 ± 0.022 | 0.441 ± 0.0053 | 0.383 ± 0.011
RWGLCFVHVTMF | 0.0369 ± 0.011 | 0.0963 ± 0.011 | 0.149 ± 0.046 | 0.215 ± 0.015 | 0.115 ± 0.01 | 0.106 ± 0.039 | 0.152 ± 0.014 | 0.173 ± 0.011
RWRLWVGWWVVG | 0.4532 ± 0.0039 | 0.587 ± 0.0088 | 0.456 ± 0.022 | 0.601 ± 0.013 | 0.1043 ± 0.00095 | 0.118 ± 0.0076 | 0.142 ± 0.017 | 0.12 ± 0.0055
RYRVRIVVFGLV | 0.407 ± 0.018 | 0.485 ± 0.068 | 0.365 ± 0.015 | 0.59 ± 0.032 | 0.075 ± 0.02 | 0.088 ± 0.046 | 0.0807 ± 0.0076 | 0.14 ± 0.018
SCFCFRVLLCSF | 0.333 ± 0.041 | 0.348 ± 0.0054 | 0.336 ± 0.023 | 0.402 ± 0.019 | 0.325 ± 0.021 | 0.297 ± 0.019 | 0.364 ± 0.0086 | 0.383 ± 0.0064
SCLFMLFPLVSV | 0.475 ± 0.0048 | 0.505 ± 0.015 | 0.421 ± 0.031 | 0.529 ± 0.01 | 0.412 ± 0.0097 | 0.409 ± 0.033 | 0.5013 ± 0.0033 | 0.432 ± 0.0046
SCLLVVVSTSGN | 0.5364 ± 0.0018 | 0.573 ± 0.0061 | 0.404 ± 0.043 | 0.611 ± 0.0019 | 0.374 ± 0.015 | 0.4057 ± 0.002 | 0.588 ± 0.022 | 0.433 ± 0.0062
SFFVCVRVFGCC | 0.315 ± 0.012 | 0.369 ± 0.011 | 0.255 ± 0.042 | 0.44 ± 0.0095 | 0.2075 ± 0.0016 | 0.239 ± 0.018 | 0.398 ± 0.011 | 0.337 ± 0.021
SFFWAMSLLCFV | 0.511 ± 0.025 | 0.559 ± 0.012 | 0.443 ± 0.025 | 0.549 ± 0.018 | 0.402 ± 0.022 | 0.414 ± 0.024 | 0.498 ± 0.00077 | 0.455 ± 0.043
SFGLICFLILCG | 0.218 ± 0.0065 | 0.218 ± 0.052 | 0.206 ± 0.03 | 0.372 ± 0.038 | 0.173 ± 0.023 | 0.205 ± 0.014 | 0.301 ± 0.0073 | 0.2964 ± 0.00086
SFIVGYRWNNRN | 0.672 ± 0.018 | 0.738 ± 0.035 | 0.647 ± 0.015 | 0.7542 ± 0.0063 | 0.337 ± 0.033 | 0.378 ± 0.0046 | 0.5776 ± 0.0018 | 0.443 ± 0.047
SFVVVFTFFFGC | 0.272 ± 0.018 | 0.381 ± 0.031 | 0.239 ± 0.032 | 0.408 ± 0.026 | 0.221 ± 0.011 | 0.258 ± 0.036 | 0.377 ± 0.02 | 0.312 ± 0.015
SGFLRFRGLVCY | 0.396 ± 0.016 | 0.445 ± 0.021 | 0.288 ± 0.043 | 0.503 ± 0.0067 | 0.233 ± 0.0028 | 0.278 ± 0.038 | 0.464 ± 0.008 | 0.359 ± 0.019
SGFWVSVDVFFV | 0.0673 ± 0.026 | 0.171 ± 0.022 | 0.155 ± 0.03 | 0.32 ± 0.015 | 0.122 ± 0.012 | 0.136 ± 0.026 | 0.29 ± 0.0036 | 0.2434 ± 0.0016
SGLPLVILFLCL | 0.529 ± 0.0086 | 0.635 ± 0.04 | 0.435 ± 0.028 | 0.625 ± 0.022 | 0.441 ± 0.026 | 0.436 ± 0.019 | 0.576 ± 0.038 | 0.476 ± 0.0088
SGRATSSRTSEP | 0.67 ± 0.035 | 0.72963 ± 0.00027 | 0.661 ± 0.01 | 0.713 ± 0.0042 | 0.662 ± 0.03 | 0.6625 ± 0.0048 | 0.7036 ± 0.0011 | 0.78 ± 0.024
SGWGCRMVVCAG | 0.154 ± 0.026 | 0.192 ± 0.028 | 0.186 ± 0.027 | 0.299 ± 0.011 | 0.152 ± 0.0088 | 0.197 ± 0.029 | 0.265 ± 0.0084 | 0.245 ± 0.0031
SHPAPPSPPPSP | 0.618 ± 0.078 | 0.676 ± 0.0076 | 0.384 ± 0.025 | 0.537 ± 0.014 | 0.363 ± 0.0086 | 0.391 ± 0.025 | 0.534 ± 0.0059 | 0.413 ± 0.0094
SILFSYFCFFLL | 0.523 ± 0.027 | 0.545 ± 0.019 | 0.441 ± 0.031 | 0.586 ± 0.014 | 0.274 ± 0.0065 | 0.273 ± 0.028 | 0.443 ± 0.0077 | 0.356 ± 0.01
SLCPFLCILCFG | 0.327 ± 0.0041 | 0.321 ± 0.036 | 0.28 ± 0.023 | 0.402 ± 0.0015 | 0.245 ± 0.0064 | 0.259 ± 0.021 | 0.347 ± 0.0085 | 0.355 ± 0.009

Sequence | protein stability index (Saccharomyces cerevisiae [1]; [3]) | protein stability index (Saccharomyces cerevisiae [1]; [4]) | protein stability index (Saccharomyces cerevisiae [1]; [5]) | protein stability index (Saccharomyces cerevisiae [1]; [6]) | protein stability index (Saccharomyces cerevisiae [1]; [7]) | protein stability index (Saccharomyces cerevisiae [1]; [8]) | protein stability index (Saccharomyces cerevisiae [1]; [9]) | protein stability index (Saccharomyces cerevisiae [2])
SLCVVIFFSSIT | 0.301 ± 0.011 | 0.437 ± 0.037 | 0.274 ± 0.031 | 0.468 ± 0.019 | 0.2524 ± 0.0025 | 0.266 ± 0.041 | 0.413 ± 0.0017 | 0.356 ± 0.02
SLPVSPLVRLLA | 0.563 ± 0.017 | 0.599 ± 0.0093 | 0.486 ± 0.026 | 0.611 ± 0.0096 | 0.127 ± 0.015 | 0.138 ± 0.02 | 0.2102 ± 0.0012 | 0.235 ± 0.021
SLRICACMTVSW | 0.3 ± 0.0079 | 0.373 ± 0.013 | 0.404 ± 0.086 | 0.335 ± 0.0069 | 0.366 ± 0.0045 | 0.353 ± 0.012 | 0.29 ± 0.013 | 0.353 ± 0.005
SLSALPRPPRLL | 0.669 ± 0.0078 | 0.713 ± 0.022 | 0.673 ± 0.021 | 0.7323 ± 0.0002 | 0.698 ± 0.027 | 0.677 ± 0.023 | 0.694 ± 0.0087 | 0.614 ± 0.26
SPPHSPSALPPP | 0.674 ± 0.025 | 0.726 ± 0.0086 | 0.656 ± 0.023 | 0.732 ± 0.019 | 0.685 ± 0.022 | 0.669 ± 0.0081 | 0.701 ± 0.0078 | 0.587 ± 0.15
SPWSIHLILLQV | 0.209 ± 0.016 | 0.312 ± 0.0012 | 0.265 ± 0.033 | 0.438 ± 0.018 | 0.1894 ± 0.00096 | 0.203 ± 0.029 | 0.36 ± 0.034 | 0.318 ± 0.025
SQCVVYLSVRFS | 0.358 ± 0.067 | 0.5 ± 0.017 | 0.34 ± 0.028 | 0.47856 ± 0.00019 | 0.326 ± 0.014 | 0.353 ± 0.011 | 0.4565 ± 0.0028 | 0.447 ± 0.024
SQKKKIKKYKET | 0.574 ± 0.032 | 0.665 ± 0.14 | 0.644 ± 0.032 | 0.706 ± 0.018 | 0.172 ± 0.0036 | 0.147 ± 0.041 | 0.208 ± 0.049 | 0.217 ± 0.033
SREQANTVYRLI | 0.689 ± 0.011 | 0.7132 ± 0.0048 | 0.631 ± 0.018 | 0.7187 ± 0.0036 | 0.254 ± 0.0066 | 0.3 ± 0.0074 | 0.553 ± 0.0053 | 0.376 ± 0.008
SRFFSCCVFPSF | 0.704 ± 0.02 | 0.7941 ± 0.0034 | 0.67 ± 0.037 | 0.781 ± 0.016 | 0.6764 ± 0.0041 | 0.654 ± 0.0089 | 0.737 ± 0.023 | 0.766 ± 0.017
SRKRIVALMLSG | 0.628 ± 0.012 | 0.678 ± 0.061 | 0.615 ± 0.029 | 0.686 ± 0.032 | 0.153 ± 0.013 | 0.18 ± 0.02 | 0.273 ± 0.0082 | 0.292 ± 0.013
SRNSSRYLLLVS | 0.539 ± 0.05 | 0.58 ± 0.076 | 0.52 ± 0.046 | 0.649 ± 0.0096 | 0.211 ± 0.032 | 0.251 ± 0.027 | 0.405 ± 0.011 | 0.316 ± 0.013
SRVGAGVVRGVG | 0.481 ± 0.031 | 0.534 ± 0.015 | 0.498 ± 0.007 | 0.5403 ± 0.0051 | 0.512 ± 0.011 | 0.493 ± 0.012 | 0.5391 ± 0.0031 | 0.488 ± 0.038
SRVHHLWAILVP | 0.231 ± 0.015 | 0.265 ± 0.0052 | 0.238 ± 0.034 | 0.3712 ± 0.0019 | 0.18 ± 0.0099 | 0.228 ± 0.026 | 0.339 ± 0.0039 | 0.345 ± 0.016
SSGAVGLVIVVC | 0.113 ± 0.028 | 0.185 ± 0.01 | 0.214 ± 0.049 | 0.309 ± 0.0093 | 0.155 ± 0.018 | 0.205 ± 0.023 | 0.247 ± 0.0078 | 0.276 ± 0.014
SSGRLRFISRIH | 0.654 ± 0.033 | 0.7064 ± 0.0053 | 0.656 ± 0.048 | 0.7487 ± 0.0033 | 0.316 ± 0.019 | 0.347 ± 0.018 | 0.5972 ± 0.0037 | 0.454 ± 0.027
SSVFLGWLIVCY | 0.0861 ± 0.0015 | 0.115 ± 0.033 | 0.173 ± 0.043 | 0.2851 ± 0.0027 | 0.154 ± 0.0099 | 0.168 ± 0.021 | 0.255 ± 0.027 | 0.245 ± 0.0037
SSVGLFVLLCLV | 0.31 ± 0.028 | 0.333 ± 0.017 | 0.271 ± 0.039 | 0.503 ± 0.07 | 0.2 ± 0.0056 | 0.205 ± 0.015 | 0.323 ± 0.0056 | 0.302 ± 0.02
STVGAWGRVGEG | 0.435 ± 0.018 | 0.462 ± 0.038 | 0.418 ± 0.035 | 0.484 ± 0.0078 | 0.45024 ± 0.00039 | 0.438 ± 0.016 | 0.472 ± 0.0089 | 0.459 ± 0.025
